Reference: article PMC12407086

Tests used:
[1] = target: recombinant human desmoglein-1 (DSG-1), purified, full-length (human) (UniProt Q02413); assay: single-molecule force spectroscopy (AFM); AFM tips functionalized with DSG-1 against living S. aureus AD08
[2] = target: recombinant human desmoglein-1 (DSG-1), purified, full-length (human) (UniProt Q02413); assay: single-molecule force spectroscopy (AFM); DSG-1 tips against L. lactis SdrD^(+) in the presence of 1 mM EDTA (15 min incubation)
[3] = target: recombinant human desmoglein-1 (DSG-1), purified, full-length (human) (UniProt Q02413); assay: single-molecule force spectroscopy (AFM); DSG-1 tips against L. lactis SdrD^(+) after EDTA, with CaCl2 added to 10 mM (15 min incubation)
[4] = target: pPROX^∗ peptide (cysteine-bearing peptide based on the p_(PROX) sequence of DSG-1) (human); assay: single-molecule force spectroscopy (AFM); AFM tips carrying pPROX^∗ by a PEG27-maleimide linker against living L. lactis SdrD^(+); pulling speed 1 μm s^−1
[5] = target: recombinant human desmoglein-1 (DSG-1), purified, full-length (human) (UniProt Q02413); assay: dynamic force spectroscopy (AFM, SMFS); DSG-1 tips against L. lactis SdrD^(+); retraction speed 0.5, 1, 3, 5 and 10 μm s^−1; Bell-Evans fit; only adhesion forces of >1000 pN considered
[6] = target: recombinant human desmoglein-1 (DSG-1), purified, full-length (human) (UniProt Q02413); assay: single-molecule force spectroscopy (AFM); AFM tips functionalized with DSG-1 against living L. lactis SdrD^(+) on a polystyrene dish; PBS, room temperature; approach and retraction 1 μm s^−1, applied force 250 pN, dwell time 0 s

Chain of pPROX^∗ peptide (cysteine-bearing peptide based on the p_(PROX) sequence of DSG-1) (human) (Q02413 other isoform, or with tags, fused parts or gaps): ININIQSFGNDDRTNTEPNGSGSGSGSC

SdrD on the surface of Staphylococcus aureus AD08 (clinical isolate from an infected skin lesion of a patient with AD) (from UniProt Q2G0L4 36-1315) (natural protein)
rupture force (main peak) [1]: 1550 pN

serine-aspartate repeat protein D (SdrD) expressed on the surface of Lactococcus lactis MG1363 (pKS80::sdrD) (from UniProt Q2G0L4 36-1315) (natural protein)
adhesion force with 1 mM EDTA [2]: 2160 pN | adhesion force with 10 mM Ca^2+ [3]: 2600 pN | adhesion frequency [4]: 33% | rupture force [4]: 1810 pN | koff [5]: 1.4e-07 s⁻¹ | adhesion (rupture) force [6]: 2080 pN | binding probability [6]: 49%
